Experimental data reported in paper PMC6826516.

B1: LgBiT-TEAD1-Myc (TEAD1 aa 194-411), wild type [not stated] / SmBiT-TAZ-Flag (TAZ aa 13-119), wild type [not stated] (parent)
chain 1: PGQQVIHVTQDLDTDLEALFNSVMNPKPSSWRKKILPESFFKEPDSGSHSRQSSTDSSGGHPGPRLAGGAQHVRSHSSPASLQLGTGAGAAGSPAQQHAHLRQQSYD
chain 2: RSIGTTKLRLVEFSAFLEQQRDPDSYNKHLFVHIGHANHSYSDPLLESVDIRQIYDKFPEKKGGLKELFGKGPQNAFFLVKFWADLNCNIQDDAGAFYGVTSQYESSENMTVTCSTKVCSFGKQVVEKVETEYARFENGRFVYRINRSPMCEYMINFIHKLKHLPEKYMMNSVLENFTILLVVTNRDTQETLLCMACVFEVSNSEHGAQHHIYRLVKD

Variants of: B1
Test: NanoBiT assay (split-luciferase biosensor) in lysates of transfected HEK293T cells
Settings: with SmBiT-TAZ-Flag (TAZ aa 13-119), 48 h after transfection, equal amounts of each biosensor plasmid, read off a plot

Row | Variant | response (fold over LgBiT-TEAD1 alone)
1 | chain 2 E47A V49A I54A | 37
